{"source": "patent US20230110249A1", "about": "(University of California, published 2023)", "binders": {"B1": {"name": "anti-ROR1 monoclonal antibody D10 (antibody, V domains shown)", "VH": "QVQLKESGPGLVAPSQTLSITCTVSGFSLTSYGVHWVRQPPGKGLEWLGVIWAGGFTNYNSALKSRLSISKDNSKSQVLLKMTSLQTDDTAMYYCARRGSSYSMDYWGQGTSVIVSS", "VL": "EIVLSQSPAITAASLGQKVTITCSASSNVSYIHWYQQRSGTSPRPWIYEISKLASGVPVRFSGSGSGTSYSLTISSMEAEDAAIYYCQQWNYPLITFGSGTKLEIQ"}, "B2": {"name": "anti-human ROR1 antibody 99961 (antibody, V domains shown)", "VH": "EIQLQQSGPVLVKPGASVKVSCKASGYAFTAYNIHWVRQSHGKRLEWIGSFDPYDGGSSYNQKFKDKATLTVDKSSTTAYMHLNSLTSEDSAVYYCARGWYYFDYWGHGTTLTVSS", "VL": "DVQITQSPSYLAASPGETITINCRASKSISKYLAWYQEKPGKTNKLLIYSGSTLQSGIPSRFRGSGSGTDFTLTISSLEPEDFAMYYCQQHDESPYTFGEGTKLEIK", "notes": "also called Ab9991"}}, "key": {"[1]": {"target": "T1, human ROR1 protein (construct not stated) (human, UniProt Q01973 30-406, limits assumed)", "T1 construct": "also called hROR1", "T1 sequence (Q01973 30-406 limits assumed)": "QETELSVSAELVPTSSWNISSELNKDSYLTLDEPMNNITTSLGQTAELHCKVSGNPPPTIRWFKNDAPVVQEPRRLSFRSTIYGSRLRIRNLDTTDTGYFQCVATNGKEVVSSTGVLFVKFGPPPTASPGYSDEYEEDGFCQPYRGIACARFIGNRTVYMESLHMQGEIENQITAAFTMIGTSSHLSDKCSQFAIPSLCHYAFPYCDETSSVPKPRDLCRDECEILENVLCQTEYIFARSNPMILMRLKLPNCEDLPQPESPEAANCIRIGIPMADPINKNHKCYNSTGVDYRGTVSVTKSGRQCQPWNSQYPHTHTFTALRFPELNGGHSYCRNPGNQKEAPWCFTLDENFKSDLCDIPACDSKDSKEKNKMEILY", "experiment": "method not stated (binding affinity; FIG. 12C)"}, "[2]": {"target": "T1, human ROR1 protein (construct not …)", "experiment": "method not stated (FIG. 12)"}, "[3]": {"target": "recombinant human ROR1 protein with the mouse amino acid residue at position 138 (human, UniProt Q01973 30-406, limits assumed)", "sequence (Q01973 30-406 E138K limits assumed)": "as the sequence (Q01973 30-406 limits assumed) above, with E109K counted along it", "experiment": "immunoblot after non-denaturing PAGE (FIG. 10)", "from_the_text": "Constructs depicted in FIG. 6 were used to select high affinity recombinant antibodies. […] Human and chimeric ROR1-ex constructs were transfected into 293 cells. This allowed for production of recombinant human-mouse chimeric ROR1 proteins that could be size separated in a non-denaturing PAGE gel or SDS PAGE gel for immunoblot analysis with different anti-ROR1 mAb. […] The full human extracellular domain is provided on the far left lane of either gel (FIG. 11)."}}, "data": [{"binder": "B1", "values": [{"measurement": "Kd", "setting": "[1]", "value": 41, "unit": "nM"}]}, {"binder": "B2", "values": [{"measurement": "Kd", "setting": "[1]", "value": 0.8, "unit": "nM"}, {"measurement": "fold higher binding affinity than D10", "setting": "[2]", "value": 50, "unit": "fold"}, {"measurement": "binding result", "setting": "[3]", "value": "no binding"}]}]}
